Source: the domain aggregation screens of Martell et al. (2025)

Assay: soluble fraction after stress (log2 fold change); higher = more stays soluble; pooled small domains, quantitative proteomics
Conditions: stress: 50 degC
How it was run: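 The stress applied to every library was 50°C. These custom libraries of small protein domains were pooled and measured at high throughput with quantitative proteomics as the read-out. Aggregation propensity is expressed as the base-two logarithm of the fold change in how much of each protein remains soluble. The higher the value, the more of that protein stays in solution.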

Sequence	soluble fraction (log2)
HMFPELSPEEQLIVEVLSKTNDLQVNLISVKTNIDISRLTSLLFTLEMKGVIKTFAGGMYHLL	-0.538
HMGMIRFSKEEQMLMMLYSPGSRLGLIAELESMKLQLNSRERKLRNLAESVLKKLEQITDEEFMQFDF	-1.31
HMPINPKVKQIYDTLKDGGADVGSEKEFNDYFFAKGKDGYNNRKEVFNTLREGGADAGKSYEEFAGWLGL	0.362
HMNFSKEYILVHSYKEIDILDALIVKYEATLVNREFDLFINSYIKINEDYAKLFRDEIISKTSGSMSIKEL	-0.825
HMKEQLEAYVNRLFADAALTIRNAEVRQEILQHALDRYDDLIASGKTEQEAYDETVSGIGDVSGLYEHK	-0.195
HMYAEVTITIEKGMTSDSVSKLLYKAGIVDDAKEFNNYIIKAGKSTKILIGEFTIQKGASYDDIIKIIA	-1.37
HMVSKSDVQRALEKVEPVLRKLGGSTVEKVRVMARQATLVFEMLKSWWKGEIDLPWKTVAAMTVTLLYL	-0.266
HMAEATATVTASEMVVRSGPSSSYSVLGSLEKGTVVTVLAASDGIAKISYKGNTGYARIVDMELNSA	-0.0414
HMRIQLNFSDQLLDDVMSEALKHIDRKSQEHHIEKQMDDEFMLVYIDARLIIQVIVNIINNAIKY	-0.00268
HMSAAIGEAVIATDEINVRSGPGLSHEIVSVVSRNESYPILEERGDWVQIQLNGGQKGWVVSWLIKKKS	0.169
HMNTLRFPEGTPEKDRMSIILASYNSGIGHVNDARRLARLNGEDPNSWEVVARYLQLKAQPEYYESEAVK	-0.0728
HMSNEIIFNQKSITRFLMNPENNSPMIYPLELGHEMKVIKKNNDWLNVTDEKTGLNGWVISDDFGLTKPEG	-0.212
HMKQTDQELAEMLRFRAAQRGLLMSDEVVNYVMTRVERSAKSLIMLLDRIDRAALAQARPVTIPLINEL	-0.499
HMRDLITYVVQINGKLRGKLEVAPDTDPEELKALALEVENVKRSLEGWVVKKVIVVPGKMVSIAAG	-0.193
HMDDSVTFSEFVRMVDSGQVESVRITGNEVTGSDSTGNTFRTFVPPQYEGLVNRLVERDVAVTAEE	0.0594
HMKSLLTHAEEFVRNNNGRWMLAETSSKESYSSKQNFYLRNNYSIISEIRDFYSVGDNLLVFGKFFT	0.0992
HMVPDGFDQLTEREYQVAMAVGKGLNNKEIASQLGLGERTVKAHLTTTFEKLHVRDRVQLALIVNRL	-0.556
HMDDATIKVNIAAKFLNAGNNLFVDIDTTVLEGRVLLTGLVDTQEVRIDAVRLVWEVEGIREVINEIEIG	-4.89
HMSKITNALLMMKLLSNGKVYSVKELSEELGVTERMVRNYKEQLEMSGYIIESFKGPGGGYFINKN	-1.61
HMRDSLVGLEGVVVREVDDETLAGKVQIGSMEWSARSESGRIPAGRRVVVLRAEGVHIVVKEV	-0.205
HMYAVQKGDTLKKIADQFGISVDTIKWANDMKGDALSIDQELKIP	0.057
HMLPADETEARVLNVLGSEPLHVDEIRNQADLPIEKISATLAMMELKGMVRQVGGMNYVAMR	0.0898
HMKKILIVTNRSAGMVVYTIPEEGIRREFTPGETKKIPFEELEKLAYLSGGRTLMENFLKIVDTETTEELG	-0.543
HMKDLQAISERMEEIISFAKANDNEISLFIVQDIIKNKKTGIDEDLLNMALYQIKEQGIKVLPA	-0.0793
HMAKRINVKLIMELSAGGLTQNEIASSRHFSKTSVNLVLKTARELNVSAADLREMSPEEAYRLFFPEK	-1.43

Sequence	soluble fraction (log2)
HMYLYHDLSDEAKAMGDEYVSVEHLVLALIRYPNNAVKELFREFGITRERFLQVLSTIRGNQRVTSDNPEA	0.0309
HMHGETLAAKRREEIKVRIQNIYDQSEQIFGYRKITATLRSQGVVVSEKLVSQLMRELEISSVS	-3.87
HMVTVSAVNITPKGHTTVGFTDRSVNPPSNYYLRVGESADGWTVKDADFDDEIATLEKDGVAITLKL	-0.0772
HMGFTDREREIIRNDLVATGRELFGTFGLKKTSIEDLTKAVGIAQGSFYTFFNSKEELYLEVMDREGEA	-0.851
HMKSPAQAAALKKLWAAIKQNEQGEVVEVLFHNRKLTDAGLVHLKGLANLQTLNLYDTKITGAGLVHL	0.0876
HMQSTEQVSVTVTIPPGGELRIDSDTFRVLLNGENVLDKQSGDWLMLSRDLLYLDIESAIGNGLSGNLIYT	0.0974
HMRTAFPQLTERELEILDLIAAGRNNAQIASALYLAPKTVRNNVSNILAKLQATDRAEAIIRARDAGLGG	-0.0599
HMGAEWTEMRVWTSTSGSKVTAEASSLTNGQVTLETKSGKRITLSIRKLVEADQKFLEAHFSK	-0.947
HMTKTRTEILEYLKQNWSVTVSASDIKKHLEEKEIKANTTTIYRYLDKLLAEHVIIKYADAGSERAVYQYS	-2.31
HMVQYVDFVKRMIEELPWWHRRMLELKYLDGLTYEEIADELQVPVGTVKGTLHRAKELFQEILKNN	-2.05
HMDSVTMYATTGVNVRSGPSTSYSIVGGLDRGDKVTRIGTSGNWTKVVWGNGSAYVFSKYLQTGY	-1.81
HMGQVSDENQLNKVIDEVIKNYPIQVEQFKAGKEPILQFLKGMVMKATEGSADPAVAEKLLRKKL	0.237
HMADLTIDGVEYTKVSPTGTLTLEKVYTKNVTPADGQYYIQTGTKTVRVATDAEVAVIKAGGF	0.0157
HMENINIRNMGIRAVEAAIISLSPDQRTFTWGATNKKLVTVPYEENPYSALAAFFKTDDGIEIYDAIEKRL	-0.892
HMRLMLITPTEFDEAAEIADNLKDRRAVLMNVEKTDNETARRLIDFLSGVVYALGGKIMRISAQAYVLT	-0.236
HMYEDSNQSLNFFAIKFIKEKNIKISQETTNLIVERARGDRGNLINELQKLEALSLTRKKITQEDVFNLTN	-0.774
HMLDKEDNANAGKTLLERELSRAHLSDVEHRELAQRLHLASEQELYIKIGSGDLSIIQALNRAKEFKDT	-0.0156
HMDRDPAEAGYDDGYLSGNTDGMNNDERATYDESSQYPTPDERQSYAAAYRRGYAAGFADGRKQAV	0.134
HMGEPLTVVAAAGGDRLDRWLAGQLAGRSRAEIQRWIEAGQVTLAGRSLKASYRLSAGDAIDVAIPPPE	-0.129
HMSIMNLSEKIVVLRKSNGMSQEELAEKLYVSRQAVSRWEMGTAVPDSTNILQLGKLFHVTTDYLLNDEYE	-3.19
HMNVNTNTILKSLMETYPDSTVFKKAEIVSIANSLGFKKSDYSPLTSTDNRTDVRGQYDLSAVIIPMRESN	-0.13
HMSMEQAKAEEIEKLGDNAPERLQAAALFAEKFFPQDVMDAVYKITETADGVRAIEHIMQTVK	-1.28
HMIRVVSIEDQPWFVAADVLKSLGMPTDKGVGKYLLALGSDERMLTTHGQIGGKGMAVTTIISESGLY	-0.46
HMETENLSPREREILEYIVKGYSYKMIAADLNIATETVRSHIKKIYKKLQVNSATEAVYKYSN	-0.322
HMDGMNEELYQKFFALVGNPDEGKRISQAKAAQALGYSSAVVSAYKNRTYNGNIKAFEDAVQAWLKREERR	0.000413

Sequence	soluble fraction (log2)
HMTILKEGMSGPEVERLQDALKRHGFDPGRVDGQFGPGTEAAILAFQKSEGLRADGVAGPKTQQALGLE	0.131
HMIGITTANLNVRTGTDTNYTSIAILPKGTKVNILEENVKPGWYKIQFDEIYAFVSSKYIKIQS	-1.12
HMQISDTASIQEIAKEIIKSNPKAVEDYKKGKENALQFLVGQLMTKTKGTVHPGAARTILGDILK	0.0851
HMLNSLDATQRLKLNKDGVVVFNFGKYVDQSVIDIFKKEKGYYNWMMSKDFSQQVKNIITKIYQEEIIG	-0.982
HMEHTPYLTEREADVVRLLVSGLDTAQIAQRLGIKTATVTAHKKHIFLKIGVRNTTQLVAWALIR	-2.34
HMFKYLLDTNIVIYVIKKRPIEVMGVFNQNANRMAISAITFSELQHGAEKSVRVQENLNAIEEFTTLIDI	0.181
HMSVSVNAPMPGNILDVRAKTGESIQKGQVIVILEAMKMENEIMAPQDGKISSINTSKGSTVNSGDLLFTM	-0.155
HMLAKNDSGLNNHTFNAIRDALLEALADGPAEAKKLTENISFPSDKIITVIRFLADHDDRFSLEDGILSLT	-0.515
HMTNKSKQRRNEILRASQELFNKKGFHDTSINDIMRRVGAAKGVFYYYFETKDQILDTLIEQHIA	-0.907
HMTMPDFGYMRVSYAEARRQLQAIGISVSTIEKVEDPSHTSATGDMVISQYPAAGSKIEGTVTLYVSVAS	-0.779
HMLETADDAKRFLGAIISEKKAENLLRVYPDIIERIVAGKPVDLSLVKGIKQKTFDKLRQKVISHYSMY	0.119
HMTIKLFPNPSTDFIRVSELSAKENYKIYTILGSEIKRGSVSNNETIDIRNLNSGVYLLKFDNGTTKKIVK	-0.886
HMLEQLTPRELKVLQALAQGRQNKEIAAQLVISERTVKFHVSAILSKLNVGNRTEAVTVAAQRGLISL	-1.03
HMKVRVFIERSNDGYSAYMPDDNNLPFGLTGDGKTAQEAMQDFLLARDEMKEFFIEEGKEFPEVEFDFS	-1.35
HMGTSQSAVKAILAQLISDENKQKPYSDEALSRLLQQQGIDIARRTVAKYREALNIPPAHQRK	0.101
HMIHIGAQEALGEFQDEEGNLTASKKEVVAALVKKSKEVSFPTSYEYEVAARMAADEYNDAGQRMA	-0.0641
HMQVSDAAQLAEVVKTVLAENPAAVGDYRKGKKAAIGFLLGQVMRHMRGTANPAVARQLLEQALEDE	0.0337
HMSSYAEVMERSKYLQLHKYKIWKSETDGFWRTYYLNEQGKRKMKKLKHSEDMIDFVIEYVQNNE	-2.2
HMSESKYKMIKNWIKSKILDGTLVPNQKIYSESELMEIFDVSRHTVRLAIGELVSEGYLFKRQGTGTFVTQ	-0.577
HMSMISLPNFVGKDIETVKAWAKENGITLIINKVEDSAKKDTVISQNPTNSDYSKILKGSAFTVNIAKE	0.0206
HMLSLGQQIRNHVLSRIESGEWPEGSRIPSEAKLVELLGASRMTIHIALRDLSAEGVLLRKQGAGTFVAPR	-2.47
HMDINNTNFSRDVDNLLQNEEFIKWRIFRTKEWEDYWENFRKENPHMEDALQEAISRFNAVK	0.156
HMELIELTVTEEFEMARLDQFLAGHLTQSRTYIQKLIKAGQITINGNLITRVKVPVHYGDFILINIPDPE	-3.54
HMRPILTLEEAKAKALAHAGLKADQVTFTEAKLDWDDGKQVYDIEFYTADFKEYDYEIDAKTGEVLEVDY	-0.452
HMADLKRLNEQIHYLGQYLSTKATYKEFLQANNKKIYRSEHQDEIAKYEEAAQFLKRSSPDGTIPTMKDLR	-0.0887
